The source of these data is patent US20190134196A1 (GMAX BIOPHARM, published 2019).

Assay [1] addresses T1, human endothelin A receptor (human, UniProt P25101 21-427).
T1 construct: For the calcium flux assay it was co-expressed with aequorin in CHO-DHFR cells; also called hETAR; human ETAR
T1 sequence: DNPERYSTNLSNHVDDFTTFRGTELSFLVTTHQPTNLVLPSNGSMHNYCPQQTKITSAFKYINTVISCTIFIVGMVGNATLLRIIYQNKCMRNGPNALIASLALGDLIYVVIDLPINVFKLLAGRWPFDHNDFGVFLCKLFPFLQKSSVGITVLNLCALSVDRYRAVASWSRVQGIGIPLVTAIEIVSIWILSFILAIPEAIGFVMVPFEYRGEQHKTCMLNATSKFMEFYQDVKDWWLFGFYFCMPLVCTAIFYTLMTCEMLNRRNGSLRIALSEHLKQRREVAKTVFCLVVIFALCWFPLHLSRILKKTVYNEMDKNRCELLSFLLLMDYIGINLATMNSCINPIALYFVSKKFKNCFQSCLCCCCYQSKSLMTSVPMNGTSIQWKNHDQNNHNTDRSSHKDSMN
As to the kind of experiment: FACS on CHO-DHFR-ETAR cells, CHO-DHFR- cells as negative control.

The target in assay [2] is T1, human endothelin A receptor. As to the kind of experiment: cell-based or functional assay.

Residue numbers refer to the chain shown, from its start.

B1: ETAR antibody A-2 (antibody, V domains shown)
VH: QIQLVQSGAELAKPGASVRMSCETSGYTFTSYWIHWIKERPGQGLEWIGYINPDTDYSEYNQKFKDKARLTADKSSTTAYMELNSLTFDDSAVYYCASAGYYFFDFWGQGTTLTVSS
VL: DIQMTQSPASLSTSVGETVTITCRASENIYSYLAWYQQRQGKSPHLLVNNAKTLAEGVPSRFSGSGSGTHFSLRISGLQPEDFGSYYCQHHYGIPFTFGGGTKLSIKR
notes: Recombinant antibody; also called L2H2
On to B1, for which, in assay [1], the binding result is “binds”.

B2: ETAR antibody A-9 (antibody, V domains shown)
VH: EVQLQQPGGGLVQPGGSLTLSCATSGFTFSSYGMSWVRQTPAKRLELVATISTNGATANYPDSVKGRFTISRDNAKSTLYLQMRSLKSEDTAMYYCATEKGAMGYWGQGTSVTVSS
VL: DVLMTQTPLSLPVSLGDQASISCRSSQNIVHSTGNTYLEWYLQKPGQSPKLLIYKVSNRFSGVPNRFRGSGSGTDFTLKITRVEAEDLGIYYCFQGSHFPFTFGSGTKLEIKR
Take B2: in assay [2], the “IC50, calcium flux assay (inhibition of human ETAR)” value turned out to be 87.8 nM.

B3: ETAR antibody A-7 (antibody, V domains shown)
VH: EVHLVESGGGLVQPGGSLKLSCAASGFTFSTYGMSWVRQTPDKRLELVATINTNGGTTYYRDSVKGRFTISRDNAKNTLYLQMSSLKSDDTAMYYCARDYGAMDYWGQGTSVTVSS
VL: B2 VL with Q18H, N28Y, N35T, K50Q, N65D, R68T, K79R, T81S, I90V, Y92F
notes: Recombinant antibody; also called L7H7
Regarding B3, the binding result in assay [1] is listed as “binds”.

B4: ETAR antibody A-12 (antibody, V domains shown)
VH: EVKLVESGGRLVQPGNSLRLSCATSGFTFSDYYMSWVRQTPGRALEWLSFIRNRANGYTTEYSASVKGRFTISRDNSQSILYLHMSTLRPEDSATYYCVRDSYHYGYFDVWGAGTTVTVSS
VL: EIQMTQTPSSLSASLGDRVTITCSASQGINNYLNWYQQKPGGKTRLLIYYTSTLQSGVPSRFSGSGSGTHYSLTISNLEPEDIATYYCQQFSKLRTFGGGTRLEIKR
notes: Recombinant antibody; also called L12H12
As to B4, the binding result in assay [1] is reported as “binds”.
